Tests used:
Mouse SLIT2-N = target: T1, Mouse SLIT2-N (mouse, UniProt Q9R1B9 26-1113, limits assumed); experiment: HTRF competition: d2-labelled mouse SLIT2-N binding to human ROBO2 on HEK293 cells; geometric mean, n=3
T1 construct: domain: SLIT2-N; d2-labelled in the HTRF assay
T1 sequence (looked up): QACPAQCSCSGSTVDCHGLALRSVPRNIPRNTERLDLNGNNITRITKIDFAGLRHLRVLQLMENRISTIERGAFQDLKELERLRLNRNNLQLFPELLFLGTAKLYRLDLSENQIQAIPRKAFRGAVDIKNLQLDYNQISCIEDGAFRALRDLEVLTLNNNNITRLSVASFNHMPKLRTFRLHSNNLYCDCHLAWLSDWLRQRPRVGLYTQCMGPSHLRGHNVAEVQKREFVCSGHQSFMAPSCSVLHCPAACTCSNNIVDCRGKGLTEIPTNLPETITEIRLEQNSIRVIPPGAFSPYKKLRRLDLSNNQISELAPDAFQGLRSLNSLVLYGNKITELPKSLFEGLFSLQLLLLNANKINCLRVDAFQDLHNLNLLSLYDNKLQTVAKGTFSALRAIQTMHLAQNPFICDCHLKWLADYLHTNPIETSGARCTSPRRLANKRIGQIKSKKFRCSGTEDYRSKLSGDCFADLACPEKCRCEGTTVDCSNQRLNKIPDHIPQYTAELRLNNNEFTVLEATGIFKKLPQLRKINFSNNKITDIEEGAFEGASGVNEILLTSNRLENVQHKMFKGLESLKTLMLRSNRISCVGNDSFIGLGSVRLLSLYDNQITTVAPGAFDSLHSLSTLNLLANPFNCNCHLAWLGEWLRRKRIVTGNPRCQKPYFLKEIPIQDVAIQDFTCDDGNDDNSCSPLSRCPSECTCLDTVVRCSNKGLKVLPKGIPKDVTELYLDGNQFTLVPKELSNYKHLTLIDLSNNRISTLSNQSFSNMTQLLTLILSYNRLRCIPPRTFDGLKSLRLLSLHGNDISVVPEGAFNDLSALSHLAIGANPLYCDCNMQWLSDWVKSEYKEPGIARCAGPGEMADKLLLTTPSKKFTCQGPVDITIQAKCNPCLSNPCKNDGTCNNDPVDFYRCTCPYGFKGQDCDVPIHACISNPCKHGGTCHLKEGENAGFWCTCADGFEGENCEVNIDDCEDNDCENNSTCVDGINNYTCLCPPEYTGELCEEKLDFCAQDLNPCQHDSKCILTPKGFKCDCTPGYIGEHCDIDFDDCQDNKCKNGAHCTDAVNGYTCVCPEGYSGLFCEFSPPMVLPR
Method: (§1) After incubation, fluorescence at 665 nm and 620 nm was measured on an Envision multilabel plate reader. The HTRF Ratio was calculated as follows: fluorescence at 665 nm/fluorescence at 620 nm×10,000. […] The IC₅₀ for each SLITx-N was determined using an 11-point, 4-fold dilution series with a top concentration of 4000 nM.

Mouse SLIT3-N = target: T2, Mouse SLIT3-N (mouse, UniProt Q9WVB4 34-1119, limits assumed); experiment: HTRF competition: d2-labelled mouse SLIT3-N binding to human ROBO2 on HEK293 cells; geometric mean, n=3
T2 construct: domain: SLIT3-N; d2-labelled in the HTRF assay
T2 sequence (looked up): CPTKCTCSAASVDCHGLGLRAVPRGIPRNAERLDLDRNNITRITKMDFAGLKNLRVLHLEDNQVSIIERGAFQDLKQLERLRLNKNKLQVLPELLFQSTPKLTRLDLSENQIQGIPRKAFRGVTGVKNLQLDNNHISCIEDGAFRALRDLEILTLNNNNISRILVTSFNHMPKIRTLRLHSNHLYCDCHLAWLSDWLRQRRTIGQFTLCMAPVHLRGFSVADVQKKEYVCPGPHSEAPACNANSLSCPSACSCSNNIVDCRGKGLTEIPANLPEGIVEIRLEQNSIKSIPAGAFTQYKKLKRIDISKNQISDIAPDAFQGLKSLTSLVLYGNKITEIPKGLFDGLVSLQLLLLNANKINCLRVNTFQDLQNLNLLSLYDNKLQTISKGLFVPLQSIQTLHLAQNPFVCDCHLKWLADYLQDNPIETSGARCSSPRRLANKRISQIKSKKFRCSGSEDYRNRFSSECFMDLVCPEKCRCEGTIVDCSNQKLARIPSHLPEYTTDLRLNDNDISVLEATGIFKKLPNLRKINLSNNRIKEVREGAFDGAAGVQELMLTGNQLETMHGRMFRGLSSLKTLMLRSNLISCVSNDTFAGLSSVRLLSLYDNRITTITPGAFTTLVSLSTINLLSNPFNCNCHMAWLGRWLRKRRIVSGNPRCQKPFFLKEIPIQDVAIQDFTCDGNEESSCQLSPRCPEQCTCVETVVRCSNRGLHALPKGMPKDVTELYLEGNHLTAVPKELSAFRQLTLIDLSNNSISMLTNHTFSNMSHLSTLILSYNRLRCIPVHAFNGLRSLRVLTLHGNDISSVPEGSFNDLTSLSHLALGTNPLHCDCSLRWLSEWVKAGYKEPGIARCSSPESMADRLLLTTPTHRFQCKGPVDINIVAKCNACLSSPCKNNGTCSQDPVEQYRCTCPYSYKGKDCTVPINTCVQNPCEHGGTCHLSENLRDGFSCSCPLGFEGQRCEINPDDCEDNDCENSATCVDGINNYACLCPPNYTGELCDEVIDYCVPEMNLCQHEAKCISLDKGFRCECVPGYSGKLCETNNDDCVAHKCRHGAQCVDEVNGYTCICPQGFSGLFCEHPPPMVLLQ
Method: as §1

B1: ROBO2-Fc 2.2 (Fc fusion)
chain: SRLRQEDFPPRIVEHPSDVIVSKGEPTTLNCKAEGRPTPTIEWYKDGERVETDKDDPRSHRMLLPSGSLFFLRIVHGRRSKPDEGSYVCVARNYLGEAVSRNASLEVALLRDDFRQNPTDVVVAAGEPAILECQPPRGHPEPTIYWKKDKVRIDDKEERISIRGGKLMISNTRKSDAGMYTCVGTNMVGERDSDPAELTVFERGGSGGSEPKSSDKTHTCPPCPAPEAAGAPSVFLFPPKPKDTLMISRTPEVTCVVVDVSHEDPEVKFNWYVDGVEVHNAKTKPREEQYNSTYRVVSVLTVLHQDWLNGKEYKCKVSNKALPAPIEKTISKAKGQPREPQVYTLPPSREEMTKNQVSLTCLVKGFYPSDIAVEWESNGQPENNYKTTPPVLDSDGSFFLYSKLTVDKSRWQQGNVFSCSVMHEALHNHYTQKSLSLSPG
notes: Labelled with Alexa Fluor 647 in the flow cytometry assay; also called ROBO-Fc 2.2; ROBO2-Fc 2.2-AF647
With B1 the IC50 (Mouse SLIT2-N) was 5.4 nM and the IC50 (Mouse SLIT3-N) was 4.3 nM.

Source: US20210214414A1 (Pfizer, published 2021)
